# B1: SRSF3 (natural protein, human, UniProt P84103 1-164, looked up)
# chain: MHRDSCPLDCKVYVGNLGNNGNKTELERAFGYYGPLRSVWVARNPPGFAFVEFEDPRDAADAVRELDGRTLCGCRVRVELSNGEKRSRNRGPPPSWGRRPRDDYRRRSPPPRRRSPRRRSFSRSRSRSLSRDRRRERSLSRERNHKPSRSFSRSRSRSRSNERK
# B2: SRSF5 (natural protein, human, UniProt Q13243 1-272, looked up)
# chain: MSGCRVFIGRLNPAAREKDVERFFKGYGRIRDIDLKRGFGFVEFEDPRDADDAVYELDGKELCSERVTIEHARARSRGGRGRGRYSDRFSSRRPRNDRRNAPPVRTENRLIVENLSSRVSWQDLKDFMRQAGEVTFADAHRPKLNEGVVEFASYGDLKNAIEKLSGKEINGRKIKLIEGSKRHSRSRSRSRSRTRSSSRSRSRSRSRSRKSYSRSRSRSRSRSRSKSRSVSRSPVPEKSQKRGSSSRSKSPASVDRQRSRSRSRSRSVDSGN
# B3: SRSF7 (natural protein, human, UniProt Q16629 1-238, looked up)
# chain: MSRYGRYGGETKVYVGNLGTGAGKGELERAFSYYGPLRTVWIARNPPGFAFVEFEDPRDAEDAVRGLDGKVICGSRVRVELSTGMPRRSRFDRPPARRPFDPNDRCYECGEKGHYAYDCHRYSRRRRSRSRSRSHSRSRGRRYSRSRSRSRGRRSRSASPRRSRSISLRRSRSASLRRSRSGSIKGSRYFQSPSRSRSRSRSISRPRSSRSKSRSPSPKRSRSPSGSPRRSASPERMD
# How the values were obtained:
# SRSF1ΔIDR2 = assay: right-angle light scattering
# [1] = target: the molecule itself; assay: right-angle light scattering
# [2] = target: the molecule itself
Molecule,threshold concentration for microphase separation (cμ) (SRSF1ΔIDR2) [µM],threshold concentration for microphase separation (cμ) [1] [µM],stoichiometry N [2] [molecules per microphase]
SRSF1ΔIDR2 (domain or fragment),0.44,–,–
B1,–,2 ± 0.14,~93
B2,–,9.5 ± 0.71,~14
B3,–,1 ± 0.14,~8

# — paper PMC12922802 (Cell, 2025)
